Data from patent publication US20110118131A1 (published 2011).

T1: Ep-CAM (UniProt P16422 24-265, limits assumed)
T1 construct: Amine coupled to a CM5 chip in the Biacore assays
T1 sequence (looked up): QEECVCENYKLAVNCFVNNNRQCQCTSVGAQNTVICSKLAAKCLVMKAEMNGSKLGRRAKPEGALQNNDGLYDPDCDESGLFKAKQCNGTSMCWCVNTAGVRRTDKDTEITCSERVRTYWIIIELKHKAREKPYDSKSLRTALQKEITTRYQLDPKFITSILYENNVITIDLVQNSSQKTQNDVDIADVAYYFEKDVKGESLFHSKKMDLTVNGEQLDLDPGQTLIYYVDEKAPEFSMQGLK


Molecular target: T1, Ep-CAM
Assay: Biacore, Fab periplasmic extract

| fold difference in affinity vs parental ING-1 [fold] | binding result | Binder |
| --- | --- | --- |
|  | no binding | ING-1 light chain R101E (Fab, V domains shown, Fab, periplasmic extract) VH: QIQLVQSGPELKKPGETVKISCKASGYTFTKYGMNWVKQAPGKGLKWMGWINTYTEEPTYGDDFKGRFAFSLETSASTANLQINNLKSEDTATYFCARFGSAVDYWGQGTSVTVSS VL: DIVMTQAAFSNPVTLGTSGSISCRSSKSLLHSNGITYLYWYLQKPGQSPQLLIYQMSNLASGVPDRFSSSGSGTDFTLRISRVEAEDVGVYYCAQNLELPETFGGGTKLEMKR |
|  | no binding | ING-1 light chain R101H (Fab, V domains shown, Fab, periplasmic extract) VH: QIQLVQSGPELKKPGETVKISCKASGYTFTKYGMNWVKQAPGKGLKWMGWINTYTEEPTYGDDFKGRFAFSLETSASTANLQINNLKSEDTATYFCARFGSAVDYWGQGTSVTVSS VL: DIVMTQAAFSNPVTLGTSGSISCRSSKSLLHSNGITYLYWYLQKPGQSPQLLIYQMSNLASGVPDRFSSSGSGTDFTLRISRVEAEDVGVYYCAQNLELPHTFGGGTKLEMKR |
| 0.04 |  | ING-1 light chain R101K (Fab, V domains shown, Fab, periplasmic extract) VH: QIQLVQSGPELKKPGETVKISCKASGYTFTKYGMNWVKQAPGKGLKWMGWINTYTEEPTYGDDFKGRFAFSLETSASTANLQINNLKSEDTATYFCARFGSAVDYWGQGTSVTVSS VL: DIVMTQAAFSNPVTLGTSGSISCRSSKSLLHSNGITYLYWYLQKPGQSPQLLIYQMSNLASGVPDRFSSSGSGTDFTLRISRVEAEDVGVYYCAQNLELPKTFGGGTKLEMKR |
|  | no binding | ING-1 light chain R101D (Fab, V domains shown, Fab, periplasmic extract) VH: QIQLVQSGPELKKPGETVKISCKASGYTFTKYGMNWVKQAPGKGLKWMGWINTYTEEPTYGDDFKGRFAFSLETSASTANLQINNLKSEDTATYFCARFGSAVDYWGQGTSVTVSS VL: DIVMTQAAFSNPVTLGTSGSISCRSSKSLLHSNGITYLYWYLQKPGQSPQLLIYQMSNLASGVPDRFSSSGSGTDFTLRISRVEAEDVGVYYCAQNLELPDTFGGGTKLEMKR |
|  | no binding | ING-1 light chain R101F (Fab, V domains shown, Fab, periplasmic extract) VH: QIQLVQSGPELKKPGETVKISCKASGYTFTKYGMNWVKQAPGKGLKWMGWINTYTEEPTYGDDFKGRFAFSLETSASTANLQINNLKSEDTATYFCARFGSAVDYWGQGTSVTVSS VL: DIVMTQAAFSNPVTLGTSGSISCRSSKSLLHSNGITYLYWYLQKPGQSPQLLIYQMSNLASGVPDRFSSSGSGTDFTLRISRVEAEDVGVYYCAQNLELPFTFGGGTKLEMKR |

More lines, now with the values behind:

| Binder | fold difference in affinity vs parental ING-1 [fold] | binding result |
| --- | --- | --- |
| ING-1 light chain P100D (Fab, V domains shown, Fab, periplasmic extract) VH: QIQLVQSGPELKKPGETVKISCKASGYTFTKYGMNWVKQAPGKGLKWMGWINTYTEEPTYGDDFKGRFAFSLETSASTANLQINNLKSEDTATYFCARFGSAVDYWGQGTSVTVSS VL: DIVMTQAAFSNPVTLGTSGSISCRSSKSLLHSNGITYLYWYLQKPGQSPQLLIYQMSNLASGVPDRFSSSGSGTDFTLRISRVEAEDVGVYYCAQNLELDRTFGGGTKLEMKR | 0.02 |  |
| ING-1 light chain Q55E (Fab, V domains shown, Fab, periplasmic extract) VH: QIQLVQSGPELKKPGETVKISCKASGYTFTKYGMNWVKQAPGKGLKWMGWINTYTEEPTYGDDFKGRFAFSLETSASTANLQINNLKSEDTATYFCARFGSAVDYWGQGTSVTVSS VL: DIVMTQAAFSNPVTLGTSGSISCRSSKSLLHSNGITYLYWYLQKPGQSPQLLIYEMSNLASGVPDRFSSSGSGTDFTLRISRVEAEDVGVYYCAQNLELPRTFGGGTKLEMKR | 0.05 |  |
| ING-1 light chain P100N (Fab, V domains shown, Fab, periplasmic extract) VH: QIQLVQSGPELKKPGETVKISCKASGYTFTKYGMNWVKQAPGKGLKWMGWINTYTEEPTYGDDFKGRFAFSLETSASTANLQINNLKSEDTATYFCARFGSAVDYWGQGTSVTVSS VL: DIVMTQAAFSNPVTLGTSGSISCRSSKSLLHSNGITYLYWYLQKPGQSPQLLIYQMSNLASGVPDRFSSSGSGTDFTLRISRVEAEDVGVYYCAQNLELNRTFGGGTKLEMKR | 0.05 |  |
| ING-1 light chain Q55D (Fab, V domains shown, Fab, periplasmic extract) VH: QIQLVQSGPELKKPGETVKISCKASGYTFTKYGMNWVKQAPGKGLKWMGWINTYTEEPTYGDDFKGRFAFSLETSASTANLQINNLKSEDTATYFCARFGSAVDYWGQGTSVTVSS VL: DIVMTQAAFSNPVTLGTSGSISCRSSKSLLHSNGITYLYWYLQKPGQSPQLLIYDMSNLASGVPDRFSSSGSGTDFTLRISRVEAEDVGVYYCAQNLELPRTFGGGTKLEMKR | 0.05 |  |
| ING-1 light chain P100Q (Fab, V domains shown, Fab, periplasmic extract) VH: QIQLVQSGPELKKPGETVKISCKASGYTFTKYGMNWVKQAPGKGLKWMGWINTYTEEPTYGDDFKGRFAFSLETSASTANLQINNLKSEDTATYFCARFGSAVDYWGQGTSVTVSS VL: DIVMTQAAFSNPVTLGTSGSISCRSSKSLLHSNGITYLYWYLQKPGQSPQLLIYQMSNLASGVPDRFSSSGSGTDFTLRISRVEAEDVGVYYCAQNLELQRTFGGGTKLEMKR | 0.04 |  |
| ING-1 light chain P100S (Fab, V domains shown, Fab, periplasmic extract) VH: QIQLVQSGPELKKPGETVKISCKASGYTFTKYGMNWVKQAPGKGLKWMGWINTYTEEPTYGDDFKGRFAFSLETSASTANLQINNLKSEDTATYFCARFGSAVDYWGQGTSVTVSS VL: DIVMTQAAFSNPVTLGTSGSISCRSSKSLLHSNGITYLYWYLQKPGQSPQLLIYQMSNLASGVPDRFSSSGSGTDFTLRISRVEAEDVGVYYCAQNLELSRTFGGGTKLEMKR | 0.06 |  |
| ING-1 light chain P100R (Fab, V domains shown, Fab, periplasmic extract) VH: QIQLVQSGPELKKPGETVKISCKASGYTFTKYGMNWVKQAPGKGLKWMGWINTYTEEPTYGDDFKGRFAFSLETSASTANLQINNLKSEDTATYFCARFGSAVDYWGQGTSVTVSS VL: DIVMTQAAFSNPVTLGTSGSISCRSSKSLLHSNGITYLYWYLQKPGQSPQLLIYQMSNLASGVPDRFSSSGSGTDFTLRISRVEAEDVGVYYCAQNLELRRTFGGGTKLEMKR | 0.05 |  |
| ING-1 light chain P100K (Fab, V domains shown, Fab, periplasmic extract) VH: QIQLVQSGPELKKPGETVKISCKASGYTFTKYGMNWVKQAPGKGLKWMGWINTYTEEPTYGDDFKGRFAFSLETSASTANLQINNLKSEDTATYFCARFGSAVDYWGQGTSVTVSS VL: DIVMTQAAFSNPVTLGTSGSISCRSSKSLLHSNGITYLYWYLQKPGQSPQLLIYQMSNLASGVPDRFSSSGSGTDFTLRISRVEAEDVGVYYCAQNLELKRTFGGGTKLEMKR | 0.03 |  |
| ING-1 light chain P100E (Fab, V domains shown, Fab, periplasmic extract) VH: QIQLVQSGPELKKPGETVKISCKASGYTFTKYGMNWVKQAPGKGLKWMGWINTYTEEPTYGDDFKGRFAFSLETSASTANLQINNLKSEDTATYFCARFGSAVDYWGQGTSVTVSS VL: DIVMTQAAFSNPVTLGTSGSISCRSSKSLLHSNGITYLYWYLQKPGQSPQLLIYQMSNLASGVPDRFSSSGSGTDFTLRISRVEAEDVGVYYCAQNLELERTFGGGTKLEMKR | 0.06 |  |
| ING-1 light chain P100H (Fab, V domains shown, Fab, periplasmic extract) VH: QIQLVQSGPELKKPGETVKISCKASGYTFTKYGMNWVKQAPGKGLKWMGWINTYTEEPTYGDDFKGRFAFSLETSASTANLQINNLKSEDTATYFCARFGSAVDYWGQGTSVTVSS VL: DIVMTQAAFSNPVTLGTSGSISCRSSKSLLHSNGITYLYWYLQKPGQSPQLLIYQMSNLASGVPDRFSSSGSGTDFTLRISRVEAEDVGVYYCAQNLELHRTFGGGTKLEMKR | 0.05 |  |
